Test [1] deals with MART-1 peptide on HLA-A*02:01 (human). Nature of the test: CD107a by flow cytometry; sorted TCR+ CD8- T cells incubated for 5 hours with peptide-loaded T2 cells. The result sentence names SEQ ID NO: 56, but the method says the cells were loaded with the analogue SEQ ID NO: 80.; full-length, on cells.
For test [2], the target named is MART-1 26-35 peptide (SEQ ID NO: 56) presented by HLA-A2 on cells (human). The test can be described thus: cell-based or functional assay.
Test [3] addresses TGFβRII frameshift peptide p573 (SEQ ID NO: 1) presented by HLA-A2 on cells (human). The test can be described thus: cell-based or functional assay.

On to DMF5, for which the EC50 of peptide in test [1] is 7 nM. For “MART-1-specific TCR DMF5 (on the surface of transduced T-cells)”, the EC50 of the peptide for CD107a staining of TCR+ CD8- T-cells after 5 hours with peptide-loaded HLA-A2+ T2 cells in test [2] was 7 nM.

B1: Radium-1 TCR (full-length, on the surface of T-cells) (TCR, V domains shown)
V domain 1: GIQVEQSPPDLILQEGANSTLRCNFSDSVNNLQWFHQNPWGQLINLFYIPSGTKQNGRLSATTVATERYSLLYISSSQTTDSGVYFCAVNAGNMLTFGGGTRLMVKP
V domain 2: DVKVTQSSRYLVKRTGEKVFLECVQDMDHENMFWYRQDPGLGLRLIYFSYDVKMKEKGDIPEGYSVSREKKERFSLILESASTNQTSMYLCASSSGVTGELFFGEGSRLTVLE
Consider B1, for which, in test [3], the “EC50 of the peptide for CD107a staining of TCR+ CD8- T-cells after 5 hours with peptide-loaded HLA-A2+ T2 cells” value came to 2 nM.

Source of the values: patent US20190336529A1 (OSLO UNIVERSITETSSYKEHUS HF, published 2019).
